This is an account of results in patent US20240317873A1 (CITY OF HOPE, published 2024).

In assay [1] the target is T1, HVEM (SinoBio, monomeric) (human, UniProt Q92956 39-202).
T1 construct: Bought protein immobilised on a CM5 chip by EDC/NHS coupling; also called hHVEM; TNFRSF14
T1 sequence (looked up): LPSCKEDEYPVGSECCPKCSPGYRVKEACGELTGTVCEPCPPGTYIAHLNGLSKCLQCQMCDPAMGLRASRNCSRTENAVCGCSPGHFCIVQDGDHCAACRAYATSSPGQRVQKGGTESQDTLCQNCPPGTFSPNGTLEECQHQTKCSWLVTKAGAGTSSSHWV
As to the kind of experiment: SPR; the chip of this figure is not described, the only SPR set-up of the filing is HVEM (SinoBio, monomeric) on CM5. A general note: Surface plasmon resonance follows binding to a sensor surface in real time, without labels.

The target in assay [2] is T2, human HVEM on the surface of cells (MM.1S myeloma cells, patient myeloma cells, Jurkat cells overexpressing … (human, UniProt Q92956 39-283)).
T2 construct: whole, on cells; also called CD270; TNFRSF14
T2 sequence (looked up): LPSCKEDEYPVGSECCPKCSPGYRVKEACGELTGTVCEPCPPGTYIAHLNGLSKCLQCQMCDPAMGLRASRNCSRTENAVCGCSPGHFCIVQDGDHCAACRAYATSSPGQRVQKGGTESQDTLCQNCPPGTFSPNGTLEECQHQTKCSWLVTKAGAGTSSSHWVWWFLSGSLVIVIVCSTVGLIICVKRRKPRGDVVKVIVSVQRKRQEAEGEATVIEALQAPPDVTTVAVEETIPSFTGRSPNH
As to the kind of experiment: imaging mass cytometry, 166Er-conjugated antibody, mouse bone marrow engrafted with MM1.S cells. Here is the method:
Mass cytometry was performed on mice bone marrow tissues engrafted with MM1.S cells. […] HVEM-4, 5, 13, 17, and 22 were used for staining and the nucleus was counterterstained with Ir-191.

The target of assay [3] is T1, HVEM (SinoBio, monomeric). As to the kind of experiment: SPR; the chip of this figure is not described, the only SPR set-up of the filing is HVEM (SinoBio, monomeric) on CM5. The source holds these as a separate data set.
The target of assay [4] is T3, HVEM recombinant protein (ELISA-based competition assay) (human, UniProt Q92956 39-202, limits assumed).
T3 construct: The internal control used a biotin-labeled human HVEM; also called recombinant protein of HVEM; biotin-labeled human HVEM
T3 sequence (looked up): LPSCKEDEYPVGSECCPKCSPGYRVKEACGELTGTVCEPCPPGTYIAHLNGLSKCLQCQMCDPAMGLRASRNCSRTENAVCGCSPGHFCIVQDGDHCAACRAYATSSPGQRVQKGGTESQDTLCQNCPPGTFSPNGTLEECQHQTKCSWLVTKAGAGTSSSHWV
As to the kind of experiment: ELISA-based competition assay with recombinant proteins: binding of biotin-labelled HVEM to recombinant LIGHT (the blocked ligand), antibody titrated. In general terms: An ELISA detects its analyte on a solid surface through an enzyme-linked reagent.

For assay [5], the target named is T1, HVEM (SinoBio, monomeric). As to the kind of experiment: SPR, HVEM immobilised on CM5 chip, Fab as analyte, 25 C.
The target in assay [6] is T2, human HVEM on the surface of cells …. As to the kind of experiment: imaging mass cytometry, 166Er-conjugated antibody, bone marrow of a multiple myeloma patient. How it is done: Mass cytometery was performed on bone marrow from a patient with multiple myeloma. […] HVEM-4, 5, 13, 17, and 22 were used for staining and the nucleus was counterterstained with Ir-191.
Assay [7] has as its target T1, HVEM (SinoBio, monomeric). As to the kind of experiment: SPR; the chip of this figure is not described, the only SPR set-up of the filing is HVEM (SinoBio, monomeric) on CM5. The source holds these as a separate data set.

Where two headings read alike, the source gives them in different places.

B1: HVEM 23Ab (antibody, human IgG1, kappa, V domains shown)
VH: QIQLVQSGPELKKPGETVKISCKASGYTFTNFGMNWVKQAPGKALKWVGWINTYTGEPTYADDFKGRFAFSLETSATTAYLQISNLKNEDTATYFCARSYYFVTSEDYWGQGTSVTVSS
VL: QIVLTQSPAIMSASPGERVTMTCTARSSVSSSYLHWYQQKPGSSPKLWIYSTSNLASGVPARFSGSGSGASYSLTNSSMEAEDAATYYCHQYHRSTWTFGGGTKLEIKR
notes: also called anti-HVEM antibody clone 23
For the molecule B1, in assay [1], the binding result is “no binding (tested: 100 nM)”.

B2: anti-HVEM antibody clone 17 (antibody, human IgG1, kappa, V domains shown)
VH: QIQLVQSGPELKKPGEPVKISCRASGYTLTNFGMNWVKQAPGKGLKWMGWINTYTGEPTYADDFKGRFAFSLETSASTAYLQINNLKNEDTATYFCARSFYGNEHYWGQGTSVTVSS
VL: QIVLTQSPAIMSASPGEKVTLTCSASSSVSSSYLFWYQQKPGSSPKLWIYSTSNLASGVPARFSGHGSGTSYSLTISSMEAEDAASYFCHQWSSYPYTFGGGTKLEIKR
notes: also called HVEM17; HVEM-17
Take B2: the binding result in assay [2] and in assay [3] was “binds” in each case.

B3: mcHVEM13 IgG (clone 13) (antibody, V domains shown)
VH: QIQLVQSGPELKKPGETVKISCKASGYILTNYGMNWVKQAPGKGLKWMGWINTYTGEPTYADAFKGRFAFSLETSASTAYLQINNLKNEDTATYFCARGYGNHWYFDYWGQGTSVTVSS
VL: QIVLTQSPAILSASPGEKVTMTCSASSSVSYMHWYQRKSGTSPKRWIYDTSKLASGVPARFSGSGSGTSYSLTISSMEAEDAATYYCQQWTSDPLTFGAGTKLELKR
notes: Murine chimeric IgG; The constant region of the tested IgG is not spelled out; Metal-conjugated in mass cytometry; also called anti-HVEM13; aHVEM13
Regarding B3, in assay [4], the “IC50 (read off the curve)” value was about 20 nM.

B4: mcHVEM13 Fab (clone 13) (Fab, V domains shown)
VH: QIQLVQSGPELKKPGETVKISCKASGYILTNYGMNWVKQAPGKGLKWMGWINTYTGEPTYADAFKGRFAFSLETSASTAYLQINNLKNEDTATYFCARGYGNHWYFDYWGQGTSVTVSS
VL: QIVLTQSPAILSASPGEKVTMTCSASSSVSYMHWYQRKSGTSPKRWIYDTSKLASGVPARFSGSGSGTSYSLTISSMEAEDAATYYCQQWTSDPLTFGAGTKLELKR
notes: Murine chimeric Fab; also called new mcHVEM13 Fab; anti-hHVEM murine chimeric Fab clone 13
Regarding B4, in assay [5], the Kd (as a rule, the free concentration of one partner at which half of the binding sites on the other are occupied at equilibrium, for simple one-to-one binding) was found to be 99.6 nM; the dissociation rate constant (koff) – broadly, the first-order rate constant of dissociation – worked out at 0.138 s⁻¹; the kon – broadly, the second-order rate constant of association – came out at 1.38e+06 M⁻¹ s⁻¹.

B5: anti-HVEM antibody clone 22 (antibody, human IgG1, kappa, V domains shown)
VH: QVQLQQSGAELVRPGASVTLSCKTSGYTFIHYEIHWVKQSPVHGLEWIGAIDPETGGTADNQKFKDKVTLTADKSSNTAYMDLRSLTSEDSAVYYCTRGDWVFAYWGQGTLVTVSA
VL: DVVMTQTPLSLPVSLGDQASISCRSSQSPLHSNGNTYLDWYLQKPGQSPKLLIYKVSNRFSGVPDRFSGSGSGTDFTLKISRVEAEDLGIYFCSQTTHVPPTFGGGTKLEIKR
notes: also called HVEM22; HVEM-22
As to B5, the binding result in assay [6] and in assay [7] was “binds” throughout.
